Data reported in publication PMC11969024, “Development of chemokine network inhibitors using combinatorial saturation mutagenesis” (Communications Biology, 2025).

B1: peptide HD2 (from tick evasin EVA4) / CCL19 (biotinylated, synthetic) (parent)
chain 1: EEDDYTAYAPLTCYFT
chain 2: GTNDAEDCCLSVTQKPIPGYIVRNFHYLLIKDGCRVPAVVFTTLRGRQLCAPPDQPWVERIIQRLQRTSAKMKRRSS
B2: peptide HD2 (from tick evasin EVA4) / CXCL13 (biotinylated, synthetic) (parent)
chain 1: EEDDYTAYAPLTCYFT
chain 2: VLEVYYTSLRCRCVQESSVFIPRRFIDRIQILPRGNGCPRKEIIVWKKNKSIVCVDPQAEWIQRMMEVLRKRSSSTLPVPVFKRKIP

Variants of: B1
Conditions: with CCL19 (biotinylated, synthetic); scale: log2

Variant | enrichment
chain 1 F15N | -5.7
chain 1 F15I | -5.23
chain 1 E2Q | -3.87
chain 1 E2P | -6.02
chain 1 E2H | -6.61
chain 1 E2K | -4.12
chain 1 T16P | -6.44
chain 1 D3K | -4.33
chain 1 D3Q | -3.96
chain 1 D3H | -5.94
chain 1 D3T | -6.58
chain 1 D3R | -6.43
chain 1 D3C | -8.87
chain 1 D3M | -6.81
chain 1 D3I | -8.83
chain 1 D3A | -6
chain 1 E1Q | -3.57
chain 1 E1C | -8.72
chain 1 Y5K | -4.57
chain 1 Y5A | -6.04
chain 1 Y5P | -5.7
chain 1 Y5E | -2.46
chain 1 Y5V | -8.24
chain 1 Y5G | -6.08

Variant | enrichment
chain 1 Y5Q | -4.33
chain 1 Y5R | -6.02
chain 1 Y8R | -7.16
chain 1 Y8D | -6.51
chain 1 Y8Q | -5.33
chain 1 Y8G | -7.68
chain 1 Y8N | -7.1
chain 1 Y8C | -8.65
chain 1 Y8P | -6.84
chain 1 Y8I | -8.35
chain 1 Y8T | -7.46
chain 1 Y8E | -5.16
chain 1 Y8K | -5.04
chain 1 Y8A | -7.75
chain 1 Y14T | -7.91
chain 1 Y14N | -5.87
chain 1 Y14D | -6.5
chain 1 Y14E | -7.73
chain 1 Y14Q | -7.02
chain 1 Y14C | -7.29
chain 1 Y14S | -8.64
chain 1 P10K | -5.94
chain 1 P10Q | -5.36
chain 1 P10I | -7.41

Variant | enrichment
chain 1 P10A | -7.68
chain 1 P10S | -8.17
chain 1 P10C | -8.69
chain 1 P10N | -6.99
chain 1 P10H | -6.93
chain 1 P10E | -6.87
chain 1 P10R | -8.05
chain 1 P10D | -7.38
chain 1 D4G | -5.19
chain 1 D4R | -6.06
chain 1 D4C | -8.21
chain 1 D4P | -6.04
chain 1 D4E | -4.92
chain 1 D4H | -6.74
chain 1 D4A | -7.05
chain 1 D4K | -5.85
chain 1 D4N | -6.94
chain 1 D4T | -6.85
chain 1 L11G | -9.22
chain 1 L11D | -8.06
chain 1 L11E | -7.14
chain 1 L11N | -7.42
chain 1 A7C | -8.81
chain 1 C13Y | -7.72

Variant | enrichment
chain 1 C13E | -8.9
chain 1 C13V | -10.3
chain 1 C13W | -8.62
chain 1 C13R | -9.52
chain 1 C13Q | -8.35
chain 1 C13G | -9.4
chain 1 C13H | -7.62
chain 1 C13T | -8.2
chain 1 C13A | -9.6
chain 1 C13I | -7.15
chain 1 C13K | -8.09
chain 1 C13F | -7.6
chain 1 C13M | -8.49
chain 1 A9H | -7.18
chain 1 A9D | -7.2
chain 1 A9Q | -6.19
chain 1 A9G | -7.67
chain 1 A9K | -5.6
chain 1 T12G | -9.27
chain 1 T12D | -7.63
chain 1 T12Q | -6.6

Variants of: B2
Conditions: with CXCL13 (biotinylated, synthetic); scale: log2

Variant | enrichment
chain 1 D4R | -5.86
chain 1 D4K | -5.65
chain 1 D4T | -6.65
chain 1 D4C | -8.01
chain 1 P10R | -7.85
chain 1 P10I | -7.21
chain 1 P10Q | -5.17
chain 1 P10K | -5.74
chain 1 P10T | -6.64
chain 1 P10C | -8.5
chain 1 P10Y | -7.34
chain 1 P10F | -8.19
chain 1 E2R | -5.9
chain 1 E2K | -3.92
chain 1 E2C | -8.79
chain 1 F15H | -6.08
chain 1 F15K | -5.78
chain 1 F15D | -7.37
chain 1 F15N | -5.51
chain 1 E1C | -8.53
chain 1 C13M | -8.29
chain 1 C13W | -8.42
chain 1 C13R | -9.32
chain 1 C13D | -7.93
chain 1 C13F | -7.4
chain 1 C13G | -9.21
chain 1 C13K | -7.9
